Laboratory results as given in patent US20230391876A1 (HANALL BIOPHARMA, published 2023).
Positions count from the first letter of the chain named. Names may count otherwise.

B1: HL161AN (antibody, human IgG1, V domains shown)
VL: SYVLTQPPSVSVAPGQTARITCGGNNIGSTSVHWYQQKPGQAPVLVVHDDSDRPSGIPERFSGSNSGNTATLTISRVEAGDEADYYCQVRDSSSDHVIFGGGTKLTVLGQPKAAPSVTL
VH: EVQLLESGGGLVQPGGSLRLSCAASEFTFGSCVMTWVRQAPGKGLEWVSVISGSGGSTYYADSVKGRFTISRDNSKNTLYLQMNSLRAEDTAVYYCAKTPWWLRSPFFDYWGQGTLVTVSS
notes: also called HL161AN RS
B2: HL161AN variant No. 20 (LC:N25Q, HC:C32Y Q82S) (antibody, human IgG1, V domains shown)
VL: B1 VL with N25Q
VH: B1 VH with C32Y, Q82S
notes: Variable domains only
B3: HL161AN variant No. 9 (LC:N25S, HC:C32Y Q82S) (antibody, human IgG1, V domains shown)
VL: B1 VL with N25S
VH: B1 VH with C32Y, Q82S
notes: Variable domains only
B4: HL161AN variant No. 12 (LC:N25Q, HC:C32S) (antibody, V domains shown)
VL: B1 VL with N25Q
VH: B1 VH with C32S
notes: also called HL161ANQ; #12 (HL161ANQ)
B5: HL161AN variant No. 15 (LC:N25Q, HC:Q82T) (antibody, human IgG1, V domains shown)
VL: B1 VL with N25Q
VH: B1 VH with Q82T
notes: Variable domains only
B6: HL161AN variant No. 1 (LC:N25S, HC:C32S) (antibody, V domains shown)
VL: B1 VL with N25S
VH: B1 VH with C32S
notes: also called HL161ANS; #1 (HL161ANS)
B7: HL161AN variant No. 17 (LC:N25Q, HC:C32S Q82S) (antibody, human IgG1, V domains shown)
VL: B1 VL with N25Q
VH: B1 VH with C32S, Q82S
notes: Variable domains only
B8: HL161AN variant No. 16 (LC:N25Q, HC:Q82E) (antibody, human IgG1, V domains shown)
VL: B1 VL with N25Q
VH: B1 VH with Q82E
notes: Variable domains only
B9: HL161AN variant No. 7 (LC:N25S, HC:C32S Q82T) (antibody, human IgG1, V domains shown)
VL: B1 VL with N25S
VH: B1 VH with C32S, Q82T
notes: Variable domains only
B10: HL161AN variant No. 21 (LC:N25Q, HC:C32Y Q82T) (antibody, human IgG1, V domains shown)
VL: B1 VL with N25Q
VH: B1 VH with C32Y, Q82T
notes: Variable domains only
B11: HL161AN variant No. 10 (LC:N25S, HC:C32Y Q82T) (antibody, human IgG1, V domains shown)
VL: B1 VL with N25S
VH: B1 VH with C32Y, Q82T
notes: Variable domains only
B12: HL161AN variant No. 4 (LC:N25S, HC:Q82T) (antibody, human IgG1, V domains shown)
VL: B1 VL with N25S
VH: B1 VH with Q82T
notes: Variable domains only
B13: HL161AN variant No. 5 (LC:N25S, HC:Q82E) (antibody, human IgG1, V domains shown)
VL: B1 VL with N25S
VH: B1 VH with Q82E
notes: Variable domains only
B14: HL161AN variant No. 18 (LC:N25Q, HC:C32S Q82T) (antibody, human IgG1, V domains shown)
VL: B1 VL with N25Q
VH: B1 VH with C32S, Q82T
notes: Variable domains only
B15: HL161AN variant No. 14 (LC:N25Q, HC:Q82S) (antibody, human IgG1, V domains shown)
VL: B1 VL with N25Q
VH: B1 VH with Q82S
notes: Variable domains only
B16: HL161AN variant No. 3 (LC:N25S, HC:Q82S) (antibody, human IgG1, V domains shown)
VL: B1 VL with N25S
VH: B1 VH with Q82S
notes: Variable domains only
B17: HL161AN variant No. 6 (LC:N25S, HC:C32S Q82S) (antibody, human IgG1, V domains shown)
VL: B1 VL with N25S
VH: B1 VH with C32S, Q82S
notes: Variable domains only
B18: HL161AN variant No. 19 (LC:N25Q, HC:C32S Q82E) (antibody, V domains shown)
VL: B1 VL with N25Q
VH: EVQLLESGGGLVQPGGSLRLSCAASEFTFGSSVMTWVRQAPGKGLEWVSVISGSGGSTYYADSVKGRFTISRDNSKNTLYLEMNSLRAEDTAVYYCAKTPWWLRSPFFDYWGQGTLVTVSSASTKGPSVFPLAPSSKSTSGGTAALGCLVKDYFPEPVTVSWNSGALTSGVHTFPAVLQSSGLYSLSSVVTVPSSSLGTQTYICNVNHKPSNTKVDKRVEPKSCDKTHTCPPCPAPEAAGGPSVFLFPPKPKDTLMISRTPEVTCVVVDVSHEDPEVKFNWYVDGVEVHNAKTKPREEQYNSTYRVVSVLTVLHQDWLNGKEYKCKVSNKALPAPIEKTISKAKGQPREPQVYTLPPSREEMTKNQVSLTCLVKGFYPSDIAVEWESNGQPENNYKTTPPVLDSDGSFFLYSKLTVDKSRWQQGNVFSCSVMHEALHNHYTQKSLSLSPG
notes: also called HL161ANQE; copies: 2 + 2

These binders were tested against T1, shFcRn (soluble human FcRn) (human, UniProt P55899 24-297; P61769 21-119) (assay: SPR, shFcRn immobilized on chip, antibody as analyte, pH 7.4;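 also: kinetics fitted with a 1:1 Langmuir model, association 200 s and dissociation 600 s in PBST, double-referenced against buffer-only and interspot signals, values averaged over repeated runs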).
T1 construct: extracellular domain; Printed only as 'soluble human FcRn'; also called hFcRn (immobilized on a chip)
T1 sequence (P55899 24-297 limits assumed, chain 1 of 2): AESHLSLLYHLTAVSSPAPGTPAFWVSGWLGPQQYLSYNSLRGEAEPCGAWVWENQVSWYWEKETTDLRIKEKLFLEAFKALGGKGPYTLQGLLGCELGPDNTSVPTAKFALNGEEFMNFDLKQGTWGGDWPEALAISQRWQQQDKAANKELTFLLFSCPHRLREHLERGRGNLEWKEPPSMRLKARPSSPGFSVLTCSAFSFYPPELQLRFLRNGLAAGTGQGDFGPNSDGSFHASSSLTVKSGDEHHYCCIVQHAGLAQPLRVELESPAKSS
T1 sequence (P61769 21-119 limits assumed, chain 2 of 2): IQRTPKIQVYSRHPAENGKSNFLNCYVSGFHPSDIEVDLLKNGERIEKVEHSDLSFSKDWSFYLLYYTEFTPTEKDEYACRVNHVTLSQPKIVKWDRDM
Method: (§1) Kinetic analysis was performed using a 1:1 Langmuir binding model, and the average KD value was obtained by repeating the analysis 6 times in each condition of pH 6.0 and pH 7.4.
(§2) Chip activation was performed under EDAC/NHS 0.5×, 30 μL/min, and 300 sec conditions. Thereafter, shFcRn was prepared at 2 μg/mL, 250 μL using an acetate buffer (pH 5.5), and immobilization was performed while flowing at 30 μL/min. The reaction was stopped when the immobilization level corresponded to 200 RU to 300 RU. Thereafter, deactivation was performed using ethanolamine at 30 μL/min, 300 sec. […] Sample dilution was performed using 1×PBST (pH 7.4) or 1×PBST (pH 6.0) buffer depending on the analysis pH. In the sample analysis conditions, association was carried out by reaction at 50 μL/min, 200 sec, and dissociation was carried out by reaction at 50 μL/min, 600 sec. Thereafter, reaction was carried out using a glycine buffer (pH 2.0) at 100 μL/min, 18 sec to perform regeneration. For kinetic analysis, samples were prepared and reacted once in three cells to which shFcRn was immobilized. Then three kinetic values were obtained, and then an average KD value was measured. When analyzing reaction signals, interspot-referencing and signals in which only buffer was analyzed were used for a double-referencing.

| Binder | Kd | koff | kon |
| --- | --- | --- | --- |
| B1 | 0.294 nM | – | – |
| B2 | 0.283 nM | 0.00056 s⁻¹ | 1.98e+06 M⁻¹ s⁻¹ |
| B3 | 0.245 nM | – | – |
| B4 | 0.209 nM | 0.000499 s⁻¹ | 2.38e+06 M⁻¹ s⁻¹ |
| B5 | 0.279 nM | 0.000513 s⁻¹ | 1.84e+06 M⁻¹ s⁻¹ |
| B6 | 0.122 nM | 0.000392 s⁻¹ | 3.22e+06 M⁻¹ s⁻¹ |
| B7 | 0.249 nM | 0.000566 s⁻¹ | 2.27e+06 M⁻¹ s⁻¹ |
| B8 | 0.272 nM | 0.000504 s⁻¹ | 1.86e+06 M⁻¹ s⁻¹ |
| B9 | 0.187 nM | – | – |
| B10 | 0.209 nM | 0.000499 s⁻¹ | 2.39e+06 M⁻¹ s⁻¹ |
| B11 | 0.256 nM | 0.000494 s⁻¹ | 1.93e+06 M⁻¹ s⁻¹ |
| B12 | 0.24 nM | – | – |
| B13 | 0.637 nM | 0.000743 s⁻¹ | 1.17e+06 M⁻¹ s⁻¹ |
| B14 | 0.226 nM | 0.000542 s⁻¹ | 2.39e+06 M⁻¹ s⁻¹ |
| B15 | 0.283 nM | 0.000551 s⁻¹ | 1.95e+06 M⁻¹ s⁻¹ |
| B16 | 0.199 nM | – | – |

What follows are binders tested against T1, shFcRn (soluble human FcRn) (assay: SPR, shFcRn immobilized on chip, antibody as analyte, pH 6.0;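 also: kinetics fitted with a 1:1 Langmuir model, association 200 s and dissociation 600 s, samples diluted in PBST, double-referenced signals, values averaged across three shFcRn-coated cells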).
Method: as §1, §2

| Binder | Kd | koff | kon |
| --- | --- | --- | --- |
| B1 | 0.116 nM | – | – |
| B2 | 0.2 nM | 0.000509 s⁻¹ | 2.54e+06 M⁻¹ s⁻¹ |
| B17 | 0.163 nM | – | – |
| B3 | 0.177 nM | – | – |
| B4 | 0.181 nM | 0.000549 s⁻¹ | 3.02e+06 M⁻¹ s⁻¹ |
| B5 | 0.265 nM | 0.000601 s⁻¹ | 2.27e+06 M⁻¹ s⁻¹ |
| B18 | 0.275 nM | 0.000575 s⁻¹ | 2.09e+06 M⁻¹ s⁻¹ |
| B6 | 0.129 nM | 0.000463 s⁻¹ | 3.58e+06 M⁻¹ s⁻¹ |
| B7 | 0.169 nM | 0.000538 s⁻¹ | 3.19e+06 M⁻¹ s⁻¹ |
| B8 | 0.271 nM | 0.000556 s⁻¹ | 2.05e+06 M⁻¹ s⁻¹ |
| B9 | 0.152 nM | – | – |
| B10 | 0.206 nM | 0.000552 s⁻¹ | 2.67e+06 M⁻¹ s⁻¹ |
| B11 | 0.205 nM | 0.000573 s⁻¹ | 2.8e+06 M⁻¹ s⁻¹ |
| B12 | 0.156 nM | – | – |
| B13 | 0.229 nM | 0.000563 s⁻¹ | 2.46e+06 M⁻¹ s⁻¹ |
| B14 | 0.198 nM | 0.000562 s⁻¹ | 2.84e+06 M⁻¹ s⁻¹ |
| B15 | 0.208 nM | 0.000558 s⁻¹ | 2.68e+06 M⁻¹ s⁻¹ |
| B16 | 0.145 nM | – | – |

These binders were tested against T2, hFcRn on hFcRn-expressing HEK293 cells (human, UniProt P55899 24-365; P61769 21-119) (assay: FACS on hFcRn HEK293 cells, pH 6.0; head prints 'FACS binding (EC50, nM)', taken as blocking of competitor Alexa488-hIgG1 (Example 4.5)).
T2 construct: whole, on cells; also called hFcRn HEK293
T2 sequence (P55899 24-365 limits assumed, chain 1 of 2): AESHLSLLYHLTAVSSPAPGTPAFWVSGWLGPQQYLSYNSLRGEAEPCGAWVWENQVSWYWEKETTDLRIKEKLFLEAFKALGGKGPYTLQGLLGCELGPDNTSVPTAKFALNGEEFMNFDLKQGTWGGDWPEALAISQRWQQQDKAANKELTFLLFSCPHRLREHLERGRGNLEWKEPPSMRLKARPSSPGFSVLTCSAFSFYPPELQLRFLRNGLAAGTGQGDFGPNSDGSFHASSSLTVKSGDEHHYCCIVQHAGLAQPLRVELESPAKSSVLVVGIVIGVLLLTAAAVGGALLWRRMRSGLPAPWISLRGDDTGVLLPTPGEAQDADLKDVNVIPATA
T2 sequence (P61769 21-119 limits assumed, chain 2 of 2): as the sequence (P61769 21-119 limits assumed, chain 2 of 2) above
Method: (§3) 1×10⁷ hFcRn HEK293 cells were seeded into a T75 flask and cultured for 24 hours. After culturing, the cells were removed and placed in a 96 well plate at 1×10⁵ cells for each sample in duplicate. […] After the reaction was completed, it was centrifuged to remove the supernatant. 200 μL of the reaction buffer was added to resuspend the cell pellet, and then the MFI value was measured in a FACS instrument.

| Binder | EC50 |
| --- | --- |
| B1 | 1.83 nM |
| B2 | 1.16 nM |
| B17 | 1.31 nM |
| B3 | 1.43 nM |
| B4 | 1.65 nM |
| B5 | 1.1 nM |
| B18 | 1.14 nM |
| B6 | 1.44 nM |
| B7 | 1.3 nM |
| B8 | 1.74 nM |
| B9 | 1.28 nM |
| B10 | 1.11 nM |
| B11 | 1.37 nM |
| B12 | 1.47 nM |
| B13 | 1.46 nM |
| B14 | 1.15 nM |
| B15 | 1.29 nM |
| B16 | 1.4 nM |

These binders were tested against T2, hFcRn on hFcRn-expressing HEK293 cells (assay: FACS on hFcRn HEK293 cells, 10 nM antibody, pH 6.0, high concentration sample).
Method: (§4) The analysis of hFcRn binding using FACS was carried out under two conditions of pH 6.0 and pH 7.4. hFcRn-expressing 1TEK293 (hFcRn HEK293) cells were diluted with the reaction buffer (0.0500 BSA in PBS, pH 6.0 or pH 7.4) and prepared in duplicate in a 96 well plate at 1×10⁵ cells for each sample. In addition, each antibody sample was diluted with the reaction buffer to 10 nM, and then put into a 96 well plate, and incubated at 4° C. for 90 minutes. Thereafter, the plate was centrifuged to remove the supernatant, and then Alexa488-goat anti-hIgG Ab (1:200) was added thereto, and again incubated at 4° C. for 90 minutes. After the reaction was completed, it was centrifuged to remove the supernatant, and 200 μL of the reaction buffer was added to resuspend the cell pellet, and then the MFI value was measured in a FACS instrument.

| Binder | MFI |
| --- | --- |
| B1 | 2950 MFI |
| B4 | 3390 MFI |
| B18 | 3240 MFI |
| B6 | 3270 MFI |

What follows are binders tested against T1, shFcRn (soluble human FcRn) (assay: SPR, hFcRn immobilized on chip, pH 7.4).
Method: as §1, §2

| Binder | Kd |
| --- | --- |
| B1 | 0.27 nM |
| B2 | 0.35 nM |
| B4 | 0.21 nM |
| B5 | 0.36 nM |
| B18 | 0.36 nM |
| B6 | 0.12 nM |
| B7 | 0.3 nM |
| B8 | 0.43 nM |
| B9 | 0.21 nM |
| B10 | 0.3 nM |
| B11 | 0.36 nM |
| B12 | 0.27 nM |
| B13 | 0.67 nM |
| B14 | 0.33 nM |
| B15 | 0.35 nM |
| B16 | 0.21 nM |

What follows are binders tested against T2, hFcRn on hFcRn-expressing HEK293 cells (assay: FACS on hFcRn HEK293 cells, 10 nM antibody, pH 6.0).
Method: as §4

| Binder | MFI |
| --- | --- |
| B1 | 2720 MFI |
| B2 | 2520 MFI |
| B17 | 2650 MFI |
| B3 | 2660 MFI |
| B4 | 2770 MFI |
| B5 | 2570 MFI |
| B18 | 2640 MFI |
| B6 | 2720 MFI |
| B7 | 2640 MFI |
| B8 | 2540 MFI |
| B9 | 2550 MFI |
| B10 | 2430 MFI |
| B11 | 2580 MFI |
| B12 | 2690 MFI |
| B13 | 2570 MFI |
| B14 | 2520 MFI |
| B15 | 2590 MFI |
| B16 | 2440 MFI |

The binders below were run against T2, hFcRn on hFcRn-expressing HEK293 cells (assay: FACS on hFcRn HEK293 cells, pH 6.0, high concentration sample; head prints 'FACS binding (EC50, nM)', taken as blocking of competitor Alexa488-hIgG1 (Example 5.5)).
Method: as §3
The evaluation of hFcRn blocking was performed at 0.1 nM, 1 nM, 10 nM, and 100 nM using FACS.

| Binder | EC50 |
| --- | --- |
| B1 | 0.91 nM |
| B4 | 0.69 nM |
| B18 | 0.62 nM |
| B6 | 0.69 nM |

The binders below were run against T2, hFcRn on hFcRn-expressing HEK293 cells (assay: FACS on hFcRn HEK293 cells, 10 nM antibody, pH 7.4, high concentration sample).
Method: as §4

| Binder | MFI |
| --- | --- |
| B1 | 7160 MFI |
| B4 | 7700 MFI |
| B18 | 7910 MFI |
| B6 | 6730 MFI |

Each binder was assayed against T1, shFcRn (soluble human FcRn) (assay: SPR, hFcRn immobilized on chip, pH 6.0).
Method: as §1, §2

| Binder | Kd |
| --- | --- |
| B2 | 0.17 nM |
| B17 | 0.13 nM |
| B3 | 0.16 nM |
| B4 | 0.18 nM |
| B5 | 0.33 nM |
| B18 | 0.32 nM |
| B6 | 0.12 nM |
| B7 | 0.22 nM |
| B8 | 0.33 nM |
| B10 | 0.18 nM |
| B11 | 0.15 nM |
| B13 | 0.16 nM |
| B14 | 0.25 nM |
| B15 | 0.2 nM |

What follows are binders tested against T2, hFcRn on hFcRn-expressing HEK293 cells (assay: FACS on hFcRn HEK293 cells, 10 nM antibody, pH 7.4).
Method: as §4

| Binder | MFI |
| --- | --- |
| B1 | 6150 MFI |
| B2 | 5840 MFI |
| B17 | 6920 MFI |
| B3 | 6750 MFI |
| B4 | 6940 MFI |
| B5 | 6540 MFI |
| B18 | 6470 MFI |
| B6 | 6460 MFI |
| B7 | 6750 MFI |
| B8 | 6210 MFI |
| B9 | 6620 MFI |
| B10 | 6030 MFI |
| B11 | 6660 MFI |
| B12 | 6300 MFI |
| B13 | 6350 MFI |
| B14 | 6910 MFI |
| B15 | 6490 MFI |
| B16 | 6240 MFI |
